Results as given in paper PMC2988878 (Nature structural & molecular biology, 2010).
Several values for one entry are separate records, joined by “and”; a condition that tells them apart may be missing. Equal values may be shown once.

Tests used:
[1] = biological target: Pup (Mycobacterium tuberculosis) (UniProt P9WHN5); assay: anisotropy; details: cited from earlier work
[2] = biological target: the molecule itself; assay: crystal structure
[3] = biological target: T1, Mycobacterium proteasomal ATPase Mpa, residues 1-234 (Mpa1-234) (Mycobacterium tuberculosis, UniProt P9WQN5 1-234); assay: crystal structure
T1 sequence: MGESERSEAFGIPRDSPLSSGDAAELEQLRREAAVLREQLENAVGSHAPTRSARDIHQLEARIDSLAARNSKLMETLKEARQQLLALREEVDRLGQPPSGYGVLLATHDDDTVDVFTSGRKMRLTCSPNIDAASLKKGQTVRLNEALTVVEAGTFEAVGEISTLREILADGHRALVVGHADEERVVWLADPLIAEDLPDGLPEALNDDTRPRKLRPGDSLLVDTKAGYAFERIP

Mpa (from UniProt P9WQN5)
Kd [1]: 4.2 µM and 3.4 µM

B1: Mpa coiled-coil domain, residues 46-96 (Mpa46-96) (domain or fragment)
chain: SHAPTRSARDIHQLEARIDSLAARNSKLMETLKEARQQLLALREEVDRLGQ
stoichiometry N [2]: 2

B2: Full-length prokaryotic ubiquitin-like protein, Pup1-64-GGQ with a C-terminal non-cleavable His6-tag (natural protein)
chain: MAQEQTKRGGGGGDDDDIAGSTAAGQERREKLTEETDDLLDEIDDVLEENAEDFVRAYVQKGGQ
binding result [3]: binds
